In patent CN108178799A (SHENZHEN INNOVA NANOBODI CO LTD, dated 2018):

B1: 纳米抗体VHH-CA125-2H7 (VHH)
VHH: ESGGGLVQAGGSLRLSCERSDAPHSPYTMGWFRQAPGKDREFVATITWSGGTTLYADSVKGRFTISRGIAKNTAYLQMNTLKPEDTAVYYCAVGLGGGAYREDHQYDYWGQGT
notes: Alpaca VHH expressed from pMES4 in E. coli BL21(DE3) periplasm; not shown: residues and tag from the pMES4 vector (protein purified on Ni-NTA / IMAC)
B2: 纳米抗体VHH-CA125-4C1 (VHH)
VHH: ESGGGLVQAGGSLRLSCAASGNTFNINAMGWYRQAPGKQRELVATITSGGSTNYADSVKGRFTISRDNAKNTVFLQMNSLKPEDTAVYYCNAVQTRLPNSPDRYEYDYWGQGT
notes: as for B1
B3: 纳米抗体VHH-CA125-4H10 (VHH)
VHH: ESGGGLVQPGGSLRLSCAASEFTLEHYAIGWFRQAPGKEREGVGCISSSQENTYVEDSAKGRFTISRDNVKNTVYLQMNSLKPEDTAVYYCAARRFGLCVISPGYFEVWGQGT
notes: as for B1

biological target: T1, CA125抗原 (purified from ascites of ovarian cancer patients) (human (ascites of ovarian cancer …, UniProt Q8WXI7 1-14451)); test: SPR, Biacore T100, 1:1 binding fit
T1 construct: Natural shed antigen, heterogeneous fragments; also called CA125糖类抗原

Q: With B1 as the binder, how does the Kd read?
A: Its Kd is 0.718 nM.

Q: For B2, which Kd is on record?
A: The Kd was 0.635 nM.

Q: B3 was tested. Which Kd did it give?
A: The Kd was 0.285 nM.
